Target: AtMIN7-HA (Arabidopsis thaliana, UniProt F4IXW2 1-1739)
Assay: transient co-expression in N. benthamiana leaves, pull-down and immunoblot

AtMIN7-HA, sequence (F4IXW2 other isoform, or with tags, fused parts or gaps limits assumed): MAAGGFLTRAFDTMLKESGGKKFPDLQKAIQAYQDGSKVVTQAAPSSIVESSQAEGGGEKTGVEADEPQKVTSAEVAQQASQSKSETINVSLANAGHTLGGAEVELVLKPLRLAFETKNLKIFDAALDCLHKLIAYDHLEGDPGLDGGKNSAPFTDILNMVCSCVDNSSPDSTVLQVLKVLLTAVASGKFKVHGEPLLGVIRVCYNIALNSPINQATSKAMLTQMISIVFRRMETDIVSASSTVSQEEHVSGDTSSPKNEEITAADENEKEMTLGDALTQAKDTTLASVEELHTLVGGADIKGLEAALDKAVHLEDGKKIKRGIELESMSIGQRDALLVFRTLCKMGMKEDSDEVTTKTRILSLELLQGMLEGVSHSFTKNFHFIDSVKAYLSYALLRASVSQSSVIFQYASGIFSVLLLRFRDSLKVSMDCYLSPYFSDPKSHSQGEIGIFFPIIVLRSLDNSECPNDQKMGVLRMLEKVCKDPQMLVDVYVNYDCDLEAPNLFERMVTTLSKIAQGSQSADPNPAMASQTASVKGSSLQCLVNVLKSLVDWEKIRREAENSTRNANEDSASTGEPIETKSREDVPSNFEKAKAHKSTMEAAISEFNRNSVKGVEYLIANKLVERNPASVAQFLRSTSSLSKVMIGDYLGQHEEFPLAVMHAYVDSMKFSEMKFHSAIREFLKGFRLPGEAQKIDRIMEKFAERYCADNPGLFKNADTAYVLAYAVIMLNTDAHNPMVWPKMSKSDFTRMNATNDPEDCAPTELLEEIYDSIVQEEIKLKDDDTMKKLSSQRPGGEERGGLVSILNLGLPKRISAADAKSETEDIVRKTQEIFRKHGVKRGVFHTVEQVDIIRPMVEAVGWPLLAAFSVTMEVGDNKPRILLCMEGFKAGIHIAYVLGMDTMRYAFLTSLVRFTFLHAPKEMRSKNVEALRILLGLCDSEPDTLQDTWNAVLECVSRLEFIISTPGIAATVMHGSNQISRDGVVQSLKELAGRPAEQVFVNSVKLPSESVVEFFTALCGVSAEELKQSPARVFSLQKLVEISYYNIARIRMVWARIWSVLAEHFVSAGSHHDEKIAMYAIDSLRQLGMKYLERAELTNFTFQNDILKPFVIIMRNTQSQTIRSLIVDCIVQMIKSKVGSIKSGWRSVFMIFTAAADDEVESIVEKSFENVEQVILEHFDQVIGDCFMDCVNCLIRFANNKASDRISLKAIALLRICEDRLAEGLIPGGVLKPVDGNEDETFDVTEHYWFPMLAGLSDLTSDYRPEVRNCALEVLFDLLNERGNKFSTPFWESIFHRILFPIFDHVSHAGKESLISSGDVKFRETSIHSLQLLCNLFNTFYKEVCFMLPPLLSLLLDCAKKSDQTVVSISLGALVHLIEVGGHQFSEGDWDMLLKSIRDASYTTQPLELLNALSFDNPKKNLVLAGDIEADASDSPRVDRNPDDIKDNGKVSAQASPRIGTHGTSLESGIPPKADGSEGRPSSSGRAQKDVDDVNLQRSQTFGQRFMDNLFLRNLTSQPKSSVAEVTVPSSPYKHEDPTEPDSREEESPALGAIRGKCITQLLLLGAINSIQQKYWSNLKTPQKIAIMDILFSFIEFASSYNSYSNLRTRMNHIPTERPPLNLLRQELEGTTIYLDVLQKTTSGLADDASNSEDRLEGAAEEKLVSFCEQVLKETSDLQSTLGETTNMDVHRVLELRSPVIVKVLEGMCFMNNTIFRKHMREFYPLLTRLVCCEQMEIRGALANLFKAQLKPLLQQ

B1: 6×His-HopM1 1-300 (other)
chain: MISSRIGGAGGVELSRVNQQHDTVPAQTAHPNAVTAGMNPPLTPDQSGSHATESSSAGAARLNVAARHTQLLQAFKAEHGTAPVSGAPMISSRAALLIGSLLQAEPLPFEVMAEKLSPERYQLKQFQGSDLQQRLEKFAQPGQIPDKAEVGQLIKGFAQSVADQLEHFQLMHDASPATVGQHAKADKATLAVSQTALGEYAGRASKAIGEGLSNSIASLDEHISALDLTLQDAEQGNKESLHADRQALVDAKTTLVGLHADFVKSPEAKRLASVAAHTQLDNVVSDLVTARNTVGGWKGA
notes: also called HopM1-300
binding result: binds

From US20090031456A1 (MICHIGAN STATE UNIVERSITY, published 2009)
